Assay [1] addresses T1, GroEL^SR (GroEL R452A/E461A/S463A/V464A) (E. coli, UniProt P0A6F5 1-548, R452A | E461A | S463A | V464A).
T1 construct: GroEL, E. coli, single-ring variant; groEL^SR in the pTrc vector; also called single-ring GroEL; source: dialysis against 30% methanol, FastQ column
The assay can be described thus: MST; cochaperonin labelled with DyLight 650, unlabelled GroEL or GroEL^SR titrated (serial dilution of 15 samples), 30 min incubation; 50 mM TrisCl pH 7.5, 100 mM KCl, 10 mM MgCl2, 1 mM EDTA, 2 mM ADP, 0.5 mg/mL BSA; Monolith NT115, 80% LED, 40% IR-laser. The note with it: both partners purified.

Assay [2] addresses T2, GroEL (E. coli, UniProt P0A6F5 1-548).
T2 construct: GroEL, E. coli, expressed from pTrc; two heptameric rings (tetradecamer); also called chaperonin; double-ring GroEL; source: E. coli BL21(DE3), purified (methanol dialysis, FastQ column); copies: 14
The assay can be described thus: MST; cochaperonin labelled with DyLight 650; unlabelled GroEL or GroEL^SR in a serial dilution of 15 samples; 50 mM TrisCl pH 7.5, 100 mM KCl, 10 mM MgCl2, 1 mM EDTA, 2 mM ADP, 0.5 mg/mL BSA; 30 min incubation. The note with it: both partners purified.

B1: GroES (natural protein, E. coli, UniProt P0A6F9 1-97, looked up)
chain: MNIRPLHDRVIVKRKEVETKSAGGIVLTGSAAAKSTRGEVLAVGNGRILENGEVKPLDVKVGDIVIFNDGYGVKSEKIDNEEVLIMSESDILAIVEA
modifications: DyLight 650 NHS Ester amine reactive dye (labelled)
notes: GroES, E. coli; one heptameric ring; groES in pET3b; also called cochaperonin
One may read the Kd as the free concentration of one partner at which half of the binding sites on the other are occupied at equilibrium, for simple one-to-one binding. Low readings indicate higher affinity, high ones lower affinity. In assay [1], B1 displayed a Kd of 3.67 nM.

B2: GroES (natural protein, E. coli, UniProt P0A6F9 1-97, looked up)
chain: MNIRPLHDRVIVKRKEVETKSAGGIVLTGSAAAKSTRGEVLAVGNGRILENGEVKPLDVKVGDIVIFNDGYGVKSEKIDNEEVLIMSESDILAIVEA
modifications: DyLight 650 NHS ester on amines (for MST)
notes: GroES, E. coli, expressed from pET3b; heptamer; also called cochaperonin; wild type GroES
Consider B2, for which binding in assay [2] was put at a Kd of 3.83 ± 0.93 nM.

Values taken from paper PMC5575113, “Creating the Functional Single-Ring GroEL-GroES Chaperonin Systems via Modulating GroEL-GroES Interaction” (Scientific Reports, 2017).
